What all share (assay type): biochemical
Series [1] in a line: Dehydrogenase assay of protein extracts, oxidation of NADPH or NADH at 340 nm. The settings on record: 1.5 mM succinic semialdehyde; for activity with NADH as electron donator: 0.5 mM NADH; for specific activity: 0.5 mM NADPH, pH 7.2, room temperature, protein extract. The method, then: Plasmids pTrcEtp and pTrcAds were retransformed into TOP10 cells and freshly plated transformants were used in gene expression studies. In addition, the pTrcHis-TOPO/lacZ plasmid (Invitrogen) was also transformed into TOP10 cells to be used as a negative control in expression experiments. Freshly transformed Escherichia coli colonies containing pTrcEtp, pTrcAds or pTrcHis-TOPO/lacZ were inoculated into 2 mL of LB liquid media containing ampicillin (100 μg/mL) and grown at 37° C. for 5 h. These were then transferred to 100 mL of LB liquid media containing ampicillin (100 μg/mL) and cultures were grown overnight at room temperature. The next morning, the cultures were diluted to an OD600 nm of 0.2 and were grown at room temperature until the OD600 nm reached 0.8. IPTG was added to the cultures to a concentration of 0.4 mM and cultures were grown for an additional 3 h at room temperature. The cultures were then centrifuged at 10,000× g for 15 min, the supernatant was decanted and the resulting pellet was resuspended in 2 mL of breakage buffer (100 mM HEPES, pH 7.2; 10 % glycerol; 1 mM AEBSF; 1 μg/mL leupeptin; and 1 μg/mL pepstatin). Cells were broken by passage two times through a french press and the resulting extract was centrifuged at 16,000× g for 15 min at 4° C. The supernatant was carefully removed (soluble protein) and the pellet was resuspended in 1 mL of breakage buffer. An additional 1 mL of breakage buffer containing 12 mM CHAPS was added and after mixing and incubation on ice for 30 min, the mixture was centrifuged at 16,000× g for 15 min at 4° C. The supernatant was carefully removed (CHAPS soluble protein) and the pellet was resuspended in 2 mL of breakage buffer (insoluble protein).
Protein extracts (soluble, CHAPS soluble and insoluble) from TOP10 cells containing pTrcEtp, pTrcAds and pTrcHis-TOPO/lacZ were assayed by measuring the oxidation of NADPH or NADH using the decrease in absorbance at 340 nm (Hearl et al., J. Biol. Chem. 260:16361-16366 (1985)). Assays contained 100 mM potassium phosphate (pH 7.2), 10% glycerol, 1.5 mM succinic semialdehyde, 0.5 mM of either NADPH or NADH and from 10 μg-400 μg of enzyme extract in a total volume of 1 mL. Assays were initiated by addition of succinic semialdehyde and were measured at room temperature. Protein concentrations of each extract were determined using the BioRad protein assay (Biorad). Protein extracts were also analyzed by SDS-PAGE.

The nature of series [2]: Kinetic analysis of purified dehydrogenases with succinatesemialdehyde and NADPH. The settings on record: purified enzyme 3 μg/mL, succinatesemialdehyde 0.1-30 mM, 0.5 mM NADPH, pH 7.0. On the procedure:
Cultures were grown at 37° C. for 5 h and then were transferred to 100 mL of LB liquid media containing ampicillin (100 μg/mL). These were grown overnight at room temperature. The next morning, 50 mL of each culture was transferred to 1 L of LB and grown at room temperature until the OD600 nm reached 0.8. IPTG was added to the cultures to a concentration of 0.4 mM and cultures were grown for an additional 4 h at room temperature. The cultures were then centrifuged at 10,000× g for 15 min, the supernatant was decanted and the resulting pellet was resuspended in 10 mL of breakage buffer (100 mM HEPES, pH 7.2; 10 % glycerol; 1 mM AEBSF; 1 μg/mL leupeptin; and 1 μg/mL pepstatin). Cells were broken by passage two times through a french press and the resulting extract was centrifuged at 16,000× g for 15 min at 4° C. The supernatant was carefully removed and 40 mL of Ni loading buffer (20 mM sodium phosphate, pH 7.5; 10 mM immidazole; 500 mM sodium chloride) was added. Proteins were loaded onto a 5 mL Hitrap chelating column (Pharmacia, Inc.) pre-equilibrated with 100 mM nickel sulfate and washed with 20 mL of loading buffer. Another wash with 50 mL of loading buffer containing 60 mM immidazole was carried out and bound proteins were eluted with a gradient of loading buffer containing immidazole from 60 mM to 1000 mM. All fractions were analyzed by SDS-PAGE.
(§1) All proteins eluted at around 120 mM immidazole. Purified proteins from pTrcAds and pTrcEtp were assayed with succinatesemialdehyde and NADPH as described above. […] Assays contained 0.5 mM NADPH, 100 mM sodium phosphate (pH 7.0), 1 mg/mL BSA, succinatesemialdehyde and enzyme in 200 μL total. Assays were carried out at various concentrations of succinatesemialdehyde (0.1-30 mM) using 3 μg/mL of each enzyme. Under these conditions, the kinetic parameters for the Arabidopsis dehydrogenase (kcat=1290 min-1, KM=4 mM) and the Tulip dehydrogenase (kcat=1200 min^−1, KM=3 mM) were determined. The ablility of each enzyme to reduce to α-methylenesuccinatesemialdehyde to α-methylene-γ-hydroxybutyrate was assessed in a coupled assay. The GABT protein from E. coli, purified as described above, was used to generate α-methylenesuccinatesemialdehyde from α-methylene-γ-aminobutyrate. This assay was carried out in the presence or absence of the Arabidopsis and Tulip dehydrogenase. […] To this was added either the Arabidopsis or Tulip protein (20 μg/mL and 3 μg/mL) or no additional protein as negative control. Assays were incubated at room temperature for 30 min and the reaction was stopped with 10% HCl. Acidification of the assay also served to partially convert α-methylene-γ-hydroxybutyrate to α-methylene-γ-butyrolactone (MBL). […] Compounds were detected with a Waters 9600 PDA detector. […]

Series [3] can be described thus: Coupled assay with purified GABT: reduction of α-methylenesuccinatesemialdehyde, MBL detected by HPLC. Particulars: coupled with 100 μg GABT, 1 mM α-methylene-γ-aminobutyrate, 0.5 mM NADPH, room temperature, 30 min. The method, then:
as §1

As a reminder, the Km is the concentration of substrate that gives half-maximal velocity. In general, kcat refers to the number of substrate molecules converted per active site and unit of time at saturation.

B1: GHBD2: γ-hydroxybutyrate dehydrogenase homolog from Arabidopsis (SEQ ID NO: 16), expressed from pTrcAds (protein)
chain: MEVGFLGLGIMGKAMSMNLLKNGFKVTVWNRTLSKCDELVEHGASVCESPAEVIKKCKYTIAMLSDPCAALSVVFDKGGVLEQICEGKGYIDMSTVDAETSLKINEAITGKGGRFVEGPVSGSKKPAEDGQLIILAAGDKALFEESIPAFDVLGKRSFYLGQVGNGAKMKLIVNMIMGSMMNAFSEGLVLADKSGLSSDTLLDILDLGAMTNPMFKGKGPSMNKSSYPPAFPLKHQQKDMRLALALGDENAVSMPVAAAANEAFKKARSLGLGDLDFSAVIEAVKFSRE
modifications: Arabidopsis
Turning to B1, in series [1], the “activity with NADH as electron donator” value is “no activity” and the specific activity is reported as 0.097 μmol/min^−1/mg^−1. For the same molecule, in series [2], the Michaelis constant (Km) was determined as 4 mM and the kcat was 21.5 s⁻¹. The “conversion of α-methylenesuccinatesemialdehyde” value in series [3] was “could convert”.

B2: GHBD1: γ-hydroxybutyrate dehydrogenase homolog from tulip pistil (SEQ ID NO: 14), expressed from pTrcEtp (protein)
chain: MEVGFLGLGIMGKAMAVNLLRSGFRVTVWNRTLSKCNELLEQGASVGETPAAVIKKCKYTIAMLSDPSAALSVVFDKDGVLEHMSSGKGYIDMSTVDAVTSSKISEAITQKGGHFLEAPVSGSKKPAEDGQLVILAAGEKALYEEIIPAFEVLGKKSFFLGQVGNGANMKLIVNMIMGSMMNALSEGLSLAGKSGLEQKTLLDVLDLGAIANPMFKLKGPAMIQNNHPPAFPLKHQQKDMRLALALGDENAVSMPVAAAANEAFKKARSLGLGDLDFSAVYEVLKYGDAS
modifications: tulip pistil
As to B2, in series [1], the “activity with NADH as electron donator” value is reported as “no activity” and the specific activity was 0.14 μmol/min^−1/mg^−1. In addition, in series [2], the Km turned out to be 3 mM and the kcat was determined as 20 s⁻¹. Besides, in series [3], the “conversion of α-methylenesuccinatesemialdehyde” value is recorded as “could convert”.

For the origin of these results see patent publication US20030170653A1, “Biological method for the production of tuliposide A and its intermediates” (priority 2001, published 2003).
